Publication PMC7108872 (Nature structural & molecular biology, 2019)

Target: bovine β-arrestin 1 (1–393) (bovine, UniProt P17870)
Experiment: cryo-EM structure

Sequence of bovine β-arrestin 1 (1–393) (P17870 1-393): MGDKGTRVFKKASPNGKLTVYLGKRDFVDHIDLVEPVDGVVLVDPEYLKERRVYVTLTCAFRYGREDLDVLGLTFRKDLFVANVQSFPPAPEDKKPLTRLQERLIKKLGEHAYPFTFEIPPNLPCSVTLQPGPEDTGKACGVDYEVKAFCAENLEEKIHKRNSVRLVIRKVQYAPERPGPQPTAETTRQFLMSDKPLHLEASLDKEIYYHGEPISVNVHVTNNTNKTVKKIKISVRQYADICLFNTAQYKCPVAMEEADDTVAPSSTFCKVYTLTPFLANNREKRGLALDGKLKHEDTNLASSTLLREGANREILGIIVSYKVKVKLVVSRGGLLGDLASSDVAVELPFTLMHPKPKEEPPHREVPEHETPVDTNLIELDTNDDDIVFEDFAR

B1: Nanobody 32 (VHH)
VHH: QVQLQESGGGLVQAGGSLRLSCVVSGFFFDTVTMAWYRRAPGKHRELVASATAGGTTTYADSVKDRFTISRDNAKNTVYLQMNSLKPEDTAVYYCNTFVRSLSWGQGTQVTVSS
binding result: binds
